Where a chain is given by its changes, count along the chain named. Names may count otherwise. Where two headings read alike, the source gives them in different places. Marks after values point to notes of the source that are not given here.

A short description of data set [1]: Differential scanning calorimetry (DSC), heat denaturation. In kind it is physicochemical. The following applies: for ΔTm, change in Tm upon addition of a three-fold molar excess of biotin / Tm(+biotin) / ΔH (unfolding enthalpy) / Tm(−biotin): DSC; for Tm(+biotin): biotin 3:1 molar ratio biotin:avidin monomer; for ΔH (unfolding enthalpy): sample without biotin; for Tm(−biotin): without biotin, average ± S.D. As for the experimental part:
The transition midpoint of the heat denaturation (Tm) of the avidin proteins was studied using a Calorimetry Sciences Corporation (CSC) Nano II differential scanning calorimeter, as in previous reports (22,23). Proteins (˜0.5 mg/ml) were analyzed both in the absence and presence of biotin (3:1 molar ratio; biotin:avidin monomer).

The nature of data set [2]: Microplate assay: remaining biotin-binding activity after heat treatment. The following applies: 50 mM phosphate buffer, 100 mM NaCl, pH 7.0. It counts as physicochemical. Here is the method:
The inactivation of the proteins during heat-treatment was analysed by using a microplate assay (23). The proteins were heated to 99.9° C. in 50 mM phosphate buffer containing 100 mM NaCl (pH 7.0) for 32 minutes. The remaining activity was probed by measuring the ability of the proteins to bind biotinylated alkaline phosphatase by coating the microplate wells with samples of the heated proteins.

Data set [3] deals with Proteinase K. Description: Proteinase K assay (proteolytic resistance, SDS-PAGE). It counts as physicochemical. The following applies: for state after incubation with Proteinase K: 16 hours, in the presence or absence of biotin. Here is the method: The proteolytic resistance of the proteins were studied using proteolysis by Proteinase K, as previously described (7). Protein sample (4 μg) was incubated in the presence of Proteinase K ( 1/25 w/w) at 37° C. for a predetermined time period, denatured by boiling in sample buffer (SDS, 2-mercaptoethanol) and subjected to SDS-PAGE followed by coomassie staining.

The nature of data set [4]: IAsys optical biosensor (SPR), 2-iminobiotin binding. The settings on record: 2-iminobiotin surface, 20° C., 50 mM borate buffer pH 9.5, 1 M NaCl. As for the experimental part: The biotin-binding characteristics of the different avidins were studied by a surface plasmon resonance (SPR) optical biosensor (IAsys). The binding affinities to the 2-iminobiotin surface in 50 mM borate buffer (pH 9.5, 1 M NaCl) were measured as previously reported (7).

Data set [5] is described as follows: Radiobiotin dissociation assay. It counts as binding. The following applies: [3H]biotin, various temperatures. As for the experimental part:
The dissociation rate of [3H]biotin from avidin, AVR4/5 and the avidin mutants was determined as described in (20) at various temperatures. The activation thermodynamic parameters for AVR4/5(C122S) and avidin were determined by analysis of the dependence of the dissociation rate upon temperature using the global fit of all data, as described in (21).

Data set [6] can be described thus: Fluorescent biotin dissociation assay. In kind it is binding. Here is the method: The binding of labelled biotin to avidins was analysed by a method based on the quenching of a biotin-coupled fluorescent probe ArcDia BF560 (ArcDia Ltd., Turku, Finland) due to binding to avidin, as previously described (18). The measurements were performed using a PerkinElmer LS55 luminometer with thermostated cuvette (25 or 50° C.). The signal measured for 3600 sec (25° C.) or 2400 sec (50° C.) was used to determine the dissociation rate constant.

The conditions of data set [7]: cited from earlier work.
Data set [8] concerns Proteinase K. The settings on record: even without bound biotin; refs (8,32); cited from earlier work.
The conditions of data set [9]: recombinant protein, earlier report; cited from earlier work.

B1: ChiAVD: Chimeric avidin: residues 38-58 moved from AVR4/5 to avidin (SEQ ID NO:15) (protein, listed as Gallus gallus)
chain: MVHATSPLLLLLLLSLALVAPGLSARKCSLTGKWTNDLGSNMTIGAVNSRGEFTGTYITAVADNPGNITLSPLLGIQHKRASQPTFGFTVNWKFSESTTVFTGQCFIDRNGKEVLKTMWLLRSSVNDIGDDWKATRVGINIFTRLRTQKE
Take B1: in data set [1], the “Tm, transition midpoint of heat denaturation” value (shortened to “Tm, transition midpoint”) worked out at 96.5 °C; the “ΔTm, change in Tm upon addition of a three-fold molar excess of biotin” value came to 27.9 °C; the “Tm(+biotin)” value was 124.4 ± 0.2 °C; the “ΔH (unfolding enthalpy)” value was determined as 126 ± 2.39 kcal/mol. The “Tm(−biotin)” value in data set [1] was found to be 96.5 ± 0.2 °C. In data set [2], the “Activity: biotin-binding activity after 32 min treatment at 99.9° C.” value (shortened to “Activity: biotin-binding activity”) was found to be 47%. In the data set on Proteinase K [3], the “state after incubation with Proteinase K” value is “remaining intact”. For the same molecule, the “kass, association rate constant” value in data set [4] was “(1.7 ± 0.1) × 10^4 M^−1s^−1”. The “biotin binding / dissociation rate in radiobiotin dissociation assay” value (“biotin binding / dissociation rate” for short) in data set [5] was “resembled AVR4/5(C122S)”. Also, in [6] (25° C.), the “Release 1 h (total release of the probe)” value came to 13.1% and the “kdiss, dissociation rate constant” value was 1.76 10^−5 s^−1. In data set [6] (50° C.), the “Release 1 h (total release of the probe)” value was determined as 93.9% and the “kdiss, dissociation rate constant” value is given as 8.00 10^−4 s^−1.

B2: ChiAVD(I117Y): Residues 38-58 moved from AVR4/5 to avidin and mutation I117Y in 1-3 subunit interface (SEQ ID NO:16) (protein, listed as Gallus gallus)
chain: B1 chain with I139Y
As for B2, in [1], the “Tm, transition midpoint” value is 111.1 °C; the “ΔTm, change in Tm upon addition of a three-fold molar excess of biotin” value is about 19 °C; the “Tm(+biotin)” value is on record as ~130^d ° C; the “ΔH (unfolding enthalpy)” value is 158 ± 9.08 kcal/mol. Moreover, in data set [1], the “Tm(−biotin)” value came to 111.1 ± 0.2 °C. The “Activity: biotin-binding activity” value in data set [2] is on record as 98%. Further, in the data set on Proteinase K [3], the “state after incubation with Proteinase K” value is reported as “remaining intact”. Also, the “kass, association rate constant” value in data set [4] is listed as “(1.6 ± 0.2) × 10^4 M^−1s^−1”. Moreover, in [5], the “biotin binding / dissociation rate” value is “resembled AVR4/5(C122S)”. For the same molecule, in data set [6] (25° C.), the “Release 1 h (total release of the probe)” value came out at 9.5% and the “kdiss, dissociation rate constant” value is 1.94 10^−5 s^−1. In addition, in [6] (50° C.), the “Release 1 h (total release of the probe)” value was found to be 94.8% and the “kdiss, dissociation rate constant” value is 7.33 10^−4 s^−1.

B3: AVR4/5: Avidin-related protein encoded identically by chicken genes AVR4 and AVR5 (protein, UniProt P56734 25-150, looked up)
Avidin-related protein 4/5: ARKCSLTGKWTNNLGSIMTIRAVNSRGEFTGTYLTAVADNPGNITLSPLLGIQHKRASQPTFGFTVHWNFSESTTVFTGQCFIDRNGKEVLKTMWLLRSSVNDISYDWKATRVGYNNFTRLCTVEE
Regarding B3, in data set [5], the “biotin binding / dissociation rate” value is given as “almost as tightly as avidin”. The “Tm, transition midpoint” value in [7] (from ref (8)) was 106.4 °C. Moreover, in the data set with Proteinase K [8], the “resistance to cleavage by Proteinase K” value was “resistant to cleavage”. Moreover, in data set [9], the “biotin binding” value was “almost as tightly as avidin”.

B4: AVR4/5(C122S): AVR4/5 with the cysteine forming intermonomeric disulphide bridges mutated to serine; insect cell produced (protein, UniProt P56734 25-150, looked up, variant C122S)
Avidin-related protein 4/5: B3 Avidin-related protein 4/5 with C122S
B4: the “Activity: biotin-binding activity” value in [2] is 72%. For the same molecule, the “resistance to the proteolytic activity of Proteinase K” value with Proteinase K [3] (even without biotin) is given as “total resistance”. For the same molecule, the “kass, association rate constant” value in [4] is on record as “(9.3 ± 0.4) × 10^3 M^−1s^−1”. Besides, in data set [5], the “biotin binding / dissociation rate” value is “tight biotin binding”. Also, in data set [6] (25° C.), the “Release 1 h (total release of the probe)” value was 12.5% and the “kdiss, dissociation rate constant” value was 2.77 10^−5 s^−1. Besides, in [6] (50° C.), the “Release 1 h (total release of the probe)” value is 93.7% and the “kdiss, dissociation rate constant” value is 7.88 10^−4 s^−1. Also, in data set [7] (DSC, sample without biotin, results from ref (8)), the “ΔH (unfolding enthalpy)” value is 137 ± 7.89 kcal/mol. Further, the “Tm(+biotin)” value in data set [7] (DSC, with biotin, results from ref (8)) is 125.4 ± 0.8 °C. Besides, the “Tm(−biotin)” value in data set [7] (DSC, without biotin, results from ref (8)) was 106.4 ± 0.8 °C. Moreover, in data set [7] (DSC, results from ref (8)), the “ΔTm, change in Tm upon addition of a three-fold molar excess of biotin” value was 19.5 °C.

B5: AVR4/5(C122S)-b: AVR4/5(C122S) produced in E. coli, non-glycosylated, three additional N-terminal residues (Gln-Thr-Val) (protein, UniProt P56734 25-150, looked up, variant C122S)
Avidin-related protein 4/5: B3 Avidin-related protein 4/5 with C122S
modifications: N-terminal Gln-Thr-Val extension
With B5, in data set [1], the “ΔTm, change in Tm upon addition of a three-fold molar excess of biotin” value came out at 17.2 °C; the “Tm(+biotin)” value was determined as 127.1 °C; the “ΔH (unfolding enthalpy)” value was determined as 110 kcal/mol; the “Tm(−biotin)” value came to 109.9 °C. Further, the “Activity: biotin-binding activity” value in data set [2] came to 56%. The “state after incubation with Proteinase K” value in the data set on Proteinase K [3] is reported as “remaining intact”. The “biotin binding / dissociation rate” value in data set [5] is recorded as “slightly slower dissociation rate”. In addition, in data set [6] (25° C.), the “Release 1 h (total release of the probe)” value is reported as 10.9% and the “kdiss, dissociation rate constant” value is 2.31 10^−5 s^−1. Besides, in data set [6] (50° C.), the “Release 1 h (total release of the probe)” value is recorded as 88.3% and the “kdiss, dissociation rate constant” value is 6.20 10^−4 s^−1.

The values are drawn from US7268216B2, “Chimeric avidin mutants” (Licentia Oy, priority 2004, dated 2007).
